Reference: PMC13397619

B1: NLV2 TCR alpha chain (CDR3α only) (parent)
chain: AGPMKTSYDKVI
B2: NLV2 TCR alpha chain (CDR3α only) (parent)
chain: AGPMKTSYDKVI
partner: NLVGMVATV

Key:
[1] = variants of: B1; experiment: T-Switch: Jurkat TCRβ−/− cells expressing a CDR3 saturation-mutagenesis library, stained with two peptide-HLA-A*02:01 tetramers (original and novel peptide) plus anti-CD3, FACS-sorted into four gates, gDNA sequenced; conditions: tetramers 1 µg/mL, 30 min on ice, SP, DP and SW gates expanded about 10 days between rounds ('two to three rounds of selection' in the Methods), unresolved parent, parent is a CDR3 fragment, scale: fold enrichment, numbering: sequential-on-construct, sequence starts at 1
[2] = variants of: B2; experiment: as above; conditions: with HLA-A*02:01 with peptide … (NLV 2-2, the original bait), tetramers 1 µg/mL, 30 min on ice, DP and SW gates expanded about 10 days between rounds ('two to three rounds of selection' in the Methods), gate SP: higher = more of the variant in the gate that binds the original peptide and not the novel one = retained original binding. Fold enrichment of the CDR3 variant in one FACS gate of a two-tetra, unresolved parent, parent is a CDR3 fragment, scale: fold enrichment, numbering: sequential-on-construct, sequence …
[3] = with both tetramers (double-negative gate, binds neither): HLA-A*02:01 with … and with …, gate DN: OPPOSITE: higher = more of the variant in the gate that binds neither peptide = LESS binding (or no expression; inferred). Fold enrichment of the CDR3 variant in one FACS gate of a two-tetram
[4] = with both tetramers (double-positive gate): HLA-A*02:01 with … and with …, gate DP: higher = more of the variant in the gate that binds both peptides. Fold enrichment of the CDR3 variant in one FACS gate of a two-tetramer stain. SP/DP/SW gates were expanded and re-sorted bef

Row | Variant | enrichment [1, 3] | enrichment [1, 4] | enrichment [2]
1 | […] (CDR3 as printed); K10F derived by comparing it with the table's wild-type CDR3 AGPMKTSYDKVI | 1.13 | 0 | 
2 | […] (CDR3 as printed); K10N derived by comparing it with the table's wild-type CDR3 AGPMKTSYDKVI | 1.16 | 0 | 
3 | […] (CDR3 as printed); P3E derived by comparing it with the table's wild-type CDR3 AGPMKTSYDKVI | 1.15 | 0 | 
4 | […] (CDR3 as printed); T6G derived by comparing it with the table's wild-type CDR3 AGPMKTSYDKVI | 1.02 | 0 | 
5 | […] (CDR3 as printed); V11F derived by comparing it with the table's wild-type CDR3 AGPMKTSYDKVI | 1.29 | 0 | 
6 | […] (CDR3 as printed); M4Q derived by comparing it with the table's wild-type CDR3 AGPMKTSYDKVI | 0.551 | 0 | 
7 | […] (CDR3 as printed); G2Q derived by comparing it with the table's wild-type CDR3 AGPMKTSYDKVI | 0.677 | 0 | 
8 | […] (CDR3 as printed); K10R derived by comparing it with the table's wild-type CDR3 AGPMKTSYDKVI | 0.909 | 0 | 
9 | […] (CDR3 as printed); I12K derived by comparing it with the table's wild-type CDR3 AGPMKTSYDKVI | 0.703 | 0 | 
10 | […] (CDR3 as printed); M4F derived by comparing it with the table's wild-type CDR3 AGPMKTSYDKVI | 1.34 | 0 | 
11 | […] (CDR3 as printed); V11W derived by comparing it with the table's wild-type CDR3 AGPMKTSYDKVI | 0.939 | 0 | 
12 | […] (CDR3 as printed); S7Y derived by comparing it with the table's wild-type CDR3 AGPMKTSYDKVI | 0.999 | 0 | 
13 | […] (CDR3 as printed); K5T derived by comparing it with the table's wild-type CDR3 AGPMKTSYDKVI | 0.493 | 0.931 | 
14 | […] (CDR3 as printed); M4A derived by comparing it with the table's wild-type CDR3 AGPMKTSYDKVI | 0.697 | 0 | 
15 | […] (CDR3 as printed); K10H derived by comparing it with the table's wild-type CDR3 AGPMKTSYDKVI | 0.835 | 0 | 
16 | […] (CDR3 as printed); M4H derived by comparing it with the table's wild-type CDR3 AGPMKTSYDKVI | 0.903 | 0 | 
17 | […] (CDR3 as printed); V11L derived by comparing it with the table's wild-type CDR3 AGPMKTSYDKVI | 0.656 | 0 | 
18 | […] (CDR3 as printed); I12S derived by comparing it with the table's wild-type CDR3 AGPMKTSYDKVI | 0.885 | 0 | 
19 | […] (CDR3 as printed); K5G derived by comparing it with the table's wild-type CDR3 AGPMKTSYDKVI | 0.602 | 0 | 
20 | […] (CDR3 as printed); K5L derived by comparing it with the table's wild-type CDR3 AGPMKTSYDKVI | 0.992 | 0 | 
21 | […] (CDR3 as printed); V11A derived by comparing it with the table's wild-type CDR3 AGPMKTSYDKVI | 1.13 | 0 | 
22 | […] (CDR3 as printed); D9M derived by comparing it with the table's wild-type CDR3 AGPMKTSYDKVI | 0.931 | 0 | 

Row | Variant | enrichment [1, 3] | enrichment [1, 4] | enrichment [2]
23 | […] (CDR3 as printed); T6S derived by comparing it with the table's wild-type CDR3 AGPMKTSYDKVI | 1.05 | 0 | 
24 | […] (CDR3 as printed); M4G derived by comparing it with the table's wild-type CDR3 AGPMKTSYDKVI | 0.783 | 0 | 
25 | […] (CDR3 as printed); S7N derived by comparing it with the table's wild-type CDR3 AGPMKTSYDKVI | 1.31 | 0 | 
26 | […] (CDR3 as printed); A1S derived by comparing it with the table's wild-type CDR3 AGPMKTSYDKVI | 0.736 | 0 | 
27 | […] (CDR3 as printed); T6Y derived by comparing it with the table's wild-type CDR3 AGPMKTSYDKVI | 1.48 | 0 | 
28 | […] (CDR3 as printed); P3F derived by comparing it with the table's wild-type CDR3 AGPMKTSYDKVI | 1.32 | 0 | 
29 | […] (CDR3 as printed); V11S derived by comparing it with the table's wild-type CDR3 AGPMKTSYDKVI | 1.15 | 0 | 
30 | […] (CDR3 as printed); P3Y derived by comparing it with the table's wild-type CDR3 AGPMKTSYDKVI | 1.08 | 0 | 
31 | […] (CDR3 as printed); I12E derived by comparing it with the table's wild-type CDR3 AGPMKTSYDKVI | 1.18 | 0 | 
32 | […] (CDR3 as printed); A1T derived by comparing it with the table's wild-type CDR3 AGPMKTSYDKVI | 0.871 | 0 | 
33 | […] (CDR3 as printed); K10G derived by comparing it with the table's wild-type CDR3 AGPMKTSYDKVI | 1 | 0 | 
34 | […] (CDR3 as printed); A1P derived by comparing it with the table's wild-type CDR3 AGPMKTSYDKVI | 0.883 | 0 | 
35 | […] (CDR3 as printed); D9A derived by comparing it with the table's wild-type CDR3 AGPMKTSYDKVI | 1.01 | 0 | 
36 | […] (CDR3 as printed); I12N derived by comparing it with the table's wild-type CDR3 AGPMKTSYDKVI | 1.04 | 0 | 
37 | […] (CDR3 as printed); A1I derived by comparing it with the table's wild-type CDR3 AGPMKTSYDKVI | 0.798 | 0 | 
38 | […] (CDR3 as printed); T6I derived by comparing it with the table's wild-type CDR3 AGPMKTSYDKVI | 0.515 | 0 | 
39 | […] (CDR3 as printed); M4I derived by comparing it with the table's wild-type CDR3 AGPMKTSYDKVI | 0.318 | 0 | 
40 | […] (CDR3 as printed); I12Q derived by comparing it with the table's wild-type CDR3 AGPMKTSYDKVI | 1.17 | 0 | 
41 | […] (CDR3 as printed); P3M derived by comparing it with the table's wild-type CDR3 AGPMKTSYDKVI | 1.17 | 0 | 
42 | […] (CDR3 as printed); V11C derived by comparing it with the table's wild-type CDR3 AGPMKTSYDKVI | 1.08 | 0 | 
43 | […] (CDR3 as printed); I12G derived by comparing it with the table's wild-type CDR3 AGPMKTSYDKVI | 1.06 | 0 | 
44 | […] (CDR3 as printed); S7K derived by comparing it with the table's wild-type CDR3 AGPMKTSYDKVI | 1.32 | 0 | 

Row | Variant | enrichment [1, 3] | enrichment [1, 4] | enrichment [2]
45 | […] (CDR3 as printed); K10S derived by comparing it with the table's wild-type CDR3 AGPMKTSYDKVI | 1.01 | 0 | 
46 | […] (CDR3 as printed); M4K derived by comparing it with the table's wild-type CDR3 AGPMKTSYDKVI | 0.454 | 0 | 
47 | […] (CDR3 as printed); K5E derived by comparing it with the table's wild-type CDR3 AGPMKTSYDKVI | 0.392 | 0 | 
48 | […] (CDR3 as printed); I12V derived by comparing it with the table's wild-type CDR3 AGPMKTSYDKVI | 0.739 | 0 | 
49 | […] (CDR3 as printed); A1R derived by comparing it with the table's wild-type CDR3 AGPMKTSYDKVI | 0.924 | 0 | 
50 | […] (CDR3 as printed); K10Y derived by comparing it with the table's wild-type CDR3 AGPMKTSYDKVI | 0.393 | 0 | 
51 | […] (CDR3 as printed); I12A derived by comparing it with the table's wild-type CDR3 AGPMKTSYDKVI | 0.854 | 0 | 
52 | […] (CDR3 as printed); A1G derived by comparing it with the table's wild-type CDR3 AGPMKTSYDKVI |  |  | 0
53 | […] (CDR3 as printed); A1M derived by comparing it with the table's wild-type CDR3 AGPMKTSYDKVI |  |  | 0.103
54 | […] (CDR3 as printed); A1N derived by comparing it with the table's wild-type CDR3 AGPMKTSYDKVI |  |  | 0.476
55 | […] (CDR3 as printed); A1P derived by comparing it with the table's wild-type CDR3 AGPMKTSYDKVI |  |  | 2.46
56 | […] (CDR3 as printed); A1I derived by comparing it with the table's wild-type CDR3 AGPMKTSYDKVI |  |  | 0.473
57 | […] (CDR3 as printed); A1C derived by comparing it with the table's wild-type CDR3 AGPMKTSYDKVI |  |  | 0.571
58 | […] (CDR3 as printed); A1H derived by comparing it with the table's wild-type CDR3 AGPMKTSYDKVI |  |  | 1.05
59 | […] (CDR3 as printed); A1Q derived by comparing it with the table's wild-type CDR3 AGPMKTSYDKVI |  |  | 0
60 | […] (CDR3 as printed); A1D derived by comparing it with the table's wild-type CDR3 AGPMKTSYDKVI |  |  | 0
61 | […] (CDR3 as printed); A1L derived by comparing it with the table's wild-type CDR3 AGPMKTSYDKVI |  |  | 0
62 | […] (CDR3 as printed); A1E derived by comparing it with the table's wild-type CDR3 AGPMKTSYDKVI |  |  | 0.186
63 | […] (CDR3 as printed); A1F derived by comparing it with the table's wild-type CDR3 AGPMKTSYDKVI |  |  | 2.07
64 | […] (CDR3 as printed); A1K derived by comparing it with the table's wild-type CDR3 AGPMKTSYDKVI |  |  | 0
